Results taken from paper doi:10.1101/325035.

Molecular target: sfGFP-Ensconsin (full length) (Drosophila)
Test: TIRF microscopy

Question: For “K560-mScarlet (truncated Kinesin-1 motor) (domain or fragment)”, which fluorescence intensity of K560-mScarlet on microtubules with 25 nM sfGFP-Ensc is on record?
Answer: 34200 A.U.
